A short description of the data set: protease stability score; higher = more stable; yeast display proteolysis, trypsin and chymotrypsin.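 Note: relative to predicted unfolded state with 0 unfolded-like and 1 meaning tenfold more protease.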
In turn, “TELDELALKLLEQLIELEATGDWKTLLKLFDPNTRVDIEVGDKKIRLHGREDVIEWVKTVYEHLRFEIRIHSSDAIDGRVHVSTKLIIRIDGRTIEVETHLRVIMIDGKIHEVNTHVH” yielded a protease stability score of 1.43.

With “TELDEQVTEVFKINERLKQTGDWKKIIDYVDPHARVEIGEFRDHGRDAAEFTMKYLGIDHFELKRVHLQGNKLHIHGELTVDGRLIHLIIISEKVDGRWITKSMTVD”, the protease stability score is 0.01.

The sequence “TELDKHLEDFAREFLHAFLTGDEDELRRLLDPNVKFEHDFDGVRFENHGMSALKEFWERVDVIDRFEIHEVRTQGDFIELVFHIDGWVNGRHKRTDSRILLVVINGKIKTIHVKIK” showed a protease stability score of 2.15.

For the sequence “TELDKHVEDLLHRFIEALHTGNWEQLEHLVDPDARFDVDGRIHHGREWLLTHMTRIKNARIEFHHIEIYGDYISMRVIIHVNGQTRDFHLELITFNGRIKEVRIWHI”, the protease stability score turned out to be 2.34.

“TELEDELRKMFESWRHNSRTGNEHAEDNNMDPNVKLLIDGRTVVGMEFYRKWVHEARIEDSHVDHHTVIDGRAHVHMTLNSNYNGVHRRLEIELVSEKIDGKWRLKSIIIR” registered a protease stability score of 1.51.

“TELEDLVKRLWHIWLHAVLTGDEDLLTKLIDPHARLEIHIGDKEFIHIGREEFVRFMREYHRHLRVERVDERSMEVIGNKSHSDVRTVIHIDGRTIDTRMHIDLIVVNGRVKSLEIHVH” returned a protease stability score of 2.26.

The sequence “TELEEDIVRAWERFVRSLETGNERSIRELMDPNPRIVIGDYEFHGREAIEELLRRIDVIKSVELRHFRLQGEKARLDTTETGHIDGRDVTYETRIISLKVNGVWVLKRIEVR” showed a protease stability score of 1.53.

Regarding “TELEEEAKKYQDFFVTIVVTGDEDSFINLFDPNVRSVVNGRKLHGMHKWKRYIEELLRKIKNLRFELTIHEVNVIDGKVESHMELILRINGVEQRHDLNVHAEKFDGRWLYREIEIR”, the protease stability score was determined as 1.46.

On to “TELEEEVERLMEIFHKAFETGDEHELKRLADPHVRLDFNGRDIHGMDFIIREWLKIKNMRFRIHLDHVELQGEKVHIDGKVEEDFDGVHRHHRVILIWEKYDGRWHHKRMHVK”, for which the protease stability score was found to be 1.43.

In the case of “TELEEIFRLALEYLDKIWKTGDEHTLKRMFDPTTLLVVDGKRQHGMEFWREFLERYDHFHHLEVDDYHDVNGVLRLHGVIDGTVNGRRHEIHVHIVASKVNGKWRLKSVIFH”, the protease stability score was 1.5.

As for “TELEELMIKIIRLILRSHNTGDEDEQRKLLDPHVRWHIGDKEIHGRDLIIEHLKEVYERIDHIEFRENHVDIQGEKLHLDGRLIFIQGDKNIEFRVHYHFLIIDGVVDLIEVQIR”, the protease stability score stood at 1.5.

With “TELEESAKRAVKHVVDLILTGDWELFEEMFDPHTRILVGDKHMHGREMASEHLRFWYEHLGVKHIEIRRIDVQGDKVVSDVETDIDGRHIRVNLVIHKVDGKWIIHSIHLD”, the protease stability score was 1.59.

“TELEHDVIHAFNLIVWAIRTGDEKTYHRLVDPRVQIDIGDKHLHGREDFTRLLREIRVTVRDWDFEHVRFQGDYAILHSRLDIEINIDGRIERIDVHQILFVEKINGRWRHTRESRH” displayed a protease stability score of 0.366.

Sequence “TELEHKAIEVVEAVFRNLHTGDESLLQELFDPNTKSLIDGVSVVGMHEIYKTIKHLRIEFESIEVHHITNVNGVLLLDVTLRERYRINGVEDEKQTRVHIIVRKIDGRWHLEHVRFH” had a protease stability score of 1.48.

“TELEKDAKEFFRIVIEAWLTGDEQKIEHLADPHVRLDINGVELHGWEELIRRLHDELHRYDYMQINVRRVEIQGEKIHVDGELELRFDGKIYRHEVEINILVVNGKNKEQKFVKK”: the protease stability score worked out at 0.243.

The sequence “TELEKDVVEVLHFLTHAHKTGDEDAINRLLDPHTRIDIDGQEFIGREDALRLWHELRTTHMRIDDRRIQGDKIQVDGQVNYLVNGREEERDVTIHMVKFDGVWVLREIKID” came in with a protease stability score of 2.07.

As for “TELEKLLKEMSDIIHHAWRTGDEHLVRNLADPNVRFHTQIDGRNDERWGREEMEKALHDWLRHFGVKHIIDKSIELQGDKITIKGHVDVDGVKIDVRIFLIVVNGKLKTMKIEHD”, the protease stability score stood at 1.19.

Regarding “TELEREVETFLEMWITAIHTGDWTTLIELIDPHARLDYDGREIHGMEYYVEEFIKRLQEHGARVDIKIDRIDFQGDKVRVIGQLEVIIGEKREVKDVIIYIEKVDGKWRLHHEEIV”, the protease stability score came out at 1.37.

As to “TELETELEHMVKIVIDSLLTGDEKKLHKQADPHVRHSQGEFEWHTREAMIRFFFELGIDHMTLTEIHLQGDFVEMHIENNINGRRVELRIHWHKFNGKWINRRTHVRHI”, the protease stability score was determined as 0.698.

Consider “TELREIFIHFAEMILENIQTGDEDTLDELADPNTRIDINGVTMHGREKISRHWKEHLDRYDHFRIEIKRIRSQGDFAENDVTLVIIYNGQRIRIRMEVEIIFVDGRIHSINERRE”, for which the protease stability score was 0.225.

In turn, “TEMEEEIRDSIELLDRAINTGDEEKLRRLFDPNTRREVGDKQHHGRELLIRQIVELGAEHHIHVDHWRLQGDKAVIDGTLNYEFNGREYRTRTTLHLVKINGRWLMHSIHLH” registered a protease stability score of 1.08.

The sequence “TEMEEWSRLAIEIWEEVVRTGNEHDMARLLDPNTRLIVGEKEYHGMETVMHLLERIKNLVLRRFHIEHVRLQGDKVEIDARSVHHVNGRDIETTLKIISFKFNGRWTIRQESII” returned a protease stability score of 0.614.

In the case of “TEMEKRAEHWARLMVDRLKTGDEEVLRKMMDPNTRLEIDGREFIGREEILKSWEELGIKHIIFRHIDIEIVDGVVHVHLDLHVRIGEKDTKIELRVTNEKINGRWVIRSIHIHDI”, the protease stability score came to 1.69.

Turning to “TEMLEEALRFVEQLIKAILTGDESVFRNLVDPNAKNEIDGVEIHGWEFLNVFHKRYDHVTHLHFVLRSVRVYGDKLEMHGVVEIHGVIDGQERNFEVDTEIHVEKINGQWILRSLYVR”, the protease stability score worked out at 1.11.

The sequence “TEMNDEARRAMKDFIEHLRTGDEDRLDKMLDPHVRMEINGRTFHGREDAIKWHREIRLEDITVKFSTIQGDKVRFFGEEDGIIDGQRHKTEVELIIRKVNGRWFIHEIQVH” registered a protease stability score of 1.27.

“TENKRDLDLLIKLHLYLHKTGDWERLFKLMDPHARLEVGDFHIHGREEVIRWFVELMERVKNMRFDLQDRKVEVQGEKVIVRSDVEVNIDGVVIRVYLEVDSIKVDGKWHLHSERIELR” displayed a protease stability score of 1.29.

Sequence “TEQDEIAERVAREIMTMLLTGDWQRLRELADPHVRTIIDGVHVHGWDRMIEVLEVLHREIRIHDIREHSIKVYNGRVEIITHNDGEIDGQRVESSERHDIIIVNGRIKTIRLDIR” yielded a protease stability score of 1.34.

Take “TEQEHDMERLIEILIHSWRTGNEDELRRQIDPNARIDIGDKHFHGREFAIKHLSELRIKDFKLQHLDVQGDKVNVEGHLEGEINGRDDRYRYWIFVSKVNGQWFVERFHIV”: the protease stability score amounted to 1.5.

“TEQMEWVEDIVRILVESINTGDEHVLKEMLDPNVRIHIGDKNVIGMEFIHRWLKEIRIEHLRVEISDVRFIGDKVKVRGRLKLHVDVDGRRHDVSHDVIIVFEKVDGKWFEREDRLL” showed a protease stability score of 1.23.

Turning to “TERDEHIEEMTDEWIELLFTGDEESLKRLADPDMRVNFNGVEIHGMHNFMRWVLHVLEHWRIEVKIHHKEVQGDKIRVELKQNIHFNGRDIHRDNREHIFVVNGVNKHVILIYR”, the protease stability score came to 1.43.

“TERDEHSRKMAHALVENFRTGDFETLHDLFDPRYLVILYIDGVDIRLHGREDFLRELKLINDRLGVDRVNLSVKHMEIQGDKVIMHFEEHQGDKTRRSEIRLEIINGRLRTSEWWIH” yielded a protease stability score of 0.788.

On to “TERDELMKRFAHIFYHWLETGDEESIKKMLDPDTLSIVDGVNLHGRDEHSRWHVELHENLGIDQIHYRLRRVEVQGDKARIDGEEEINGKHVKLRIELEVINGRIKDIRVSVR”, for which the protease stability score was determined as 1.45.

As for “TERDMFIETYIQIFIEHVRTGDEEALARLADPNVRIRVGDKHLHGWHELRRFFHEWRVKDLDFRDYRYYDGRVEIRGFERVEFNGQERDMEVIFHFVKINGRWYLEETEIR”, the protease stability score was 2.32.

Regarding “TEREEDVKTAMDHLYEIIETGDWKEIHKLIDPNAKVHIDGRNLIGRELMTKIIEEMSEKYKNLRLELTHFEVQGNKVISHTNNRFDGREVRTLMILTKIDGRWIIHSINLE”, the protease stability score was 1.11.

With “TEREEENRIARQLFEHDWETGDEDSIHRLADPHALLTDENEKLHGREDVTDWIIKVSRKYKNLQFRVTDQELQGNKLIIYSTSKYNGRTFHLIFFVLKVDGRWHFHHMRIE”, the protease stability score was found to be 1.36.

Take “TEREEEVHHVQRLEWEALRTGNEEYLLRLIDPEVRIRQGDKTLIGREALNLHLKKVKNLQFRDIKLRDFDVQGEKIHLHTELIGEVDGRELKIDIDIHVKKINGRWVIDSFHIN”: the protease stability score came to 1.32.

Consider “TERHEHVLHLLNLFLEEWLTGDWDKFFRLADPNVKYFINGQDIHGRETIRENHEQKWRELRIREIRVHSVDVVGDKAHADITENLEVNGREIRTRSHLDIVVVNGRVHHVRMHVD”, for which the protease stability score was 0.544.

With “TERREVVEQLLRHFFQSTITGDWRDLEHYIDPNARNIVNGKITHGREAITEYYMRFDYFHVDDIIIRERDVIDGQAHLRVEIHGQIEINGRKNRFETHVEIIILKVDGRWVWRSFDIR”, the protease stability score worked out at 1.33.

“TESEEDAEWAFRILEHVLETGDEHLLRVLLDPHVRVHIDGRNIHGRENVIRELTEIRIHVEMHLEHVDLQGDKMHIDLRVHIIIIFNGQEKRRTHRMEMIVFKYDGKWFINEIHFH”: the protease stability score came out at 1.37.

As to “TESEFMKEYANKHLTRHLETGDWKDFQRNVDPNARVDFNGVELIGREHAIKLFHEIRIEHLEIHDVKMQGDKLEVDGILHTRQGDKRHDLKVIIHMLKVDGKWVITEIEVR”, the protease stability score turned out to be 0.948.

Sequence “TESEKEAHDAVKRSIDSWLTGDEHDMAELLDPNVRLEIGDKTFIGREEFVKWLKDVREKFKGVRLHIRDYRVHVVGDKVRVEIDIQEDYGDKFHDVTLVFILRKIDGRWHNQSVEVRIE” gave a protease stability score of 1.58.

Take “TESEKLSRIVIKLLIESTRTGDERILHELVDPNVKLNVNGRELHGWEEMVKIHKQWRFHDLEVDSVRLIGDKMEIDTTIHGTIDGQKDNIDVRIILEKVNGRWVLREVHIK”: the protease stability score turned out to be 1.58.

The sequence “TESEKMALIAIEIIFHDLLTGNEESLIKLADPDVQLHYGDKTFHGREEFHKLYSEIIKRYDHIEVLIRDIRVQGDKMHVKEELNLVINGKTVHLESNRTSLKYNGRWHLKSVHLH” showed a protease stability score of 1.26.

As to “TESEKSAHEFLELFEKSIVTGDEDNLDKMADPNVQTIINGREFHGREEMVKAFREIWNIMGVKHIEIRLKQIDFQGEKISVDSRLHIDVNGKRIDHSMTIIFRKINGRWVLESINRD”, the protease stability score is 1.34.

In the case of “TESKQEEHLALEVIEHAYRTGDEHELHELLDPHTRIFIGDKTHHGREFYLRVLKRERDELGVDKIEIIIRRVEIQGDKMIMDGELRVNGKTVRVHLILRKYDGRWLIKHITHE”, the protease stability score is 1.47.

“TETERHIEEHLRQMVHQLRTGDFERFEDLADPNMRIDVDGKEFIGREAVDRFWRRVDVIHDLDFKDMEIQGNKVVLNVRIIGNINGVHDHTEQHIVVFKINGRWYWHSIEVH” displayed a protease stability score of 1.16.

For “TEVEKKAREINKELSSALLTGDEHIMRRLADPHVRIFFNGQHLVGMEEMMKVLLHLRIKWKDIKIEDVKIQGDFMHIDTIEHGILEVGDKRIEFHREVEIYITKINGRWMIEELTYR”, the protease stability score is 1.34.

Source of the values: the NTF2 design screens of Basanta et al. (2020).
